Assay results as given in publication PMC4615894.

Target: CENP-W (Xenopus (endogenous in egg extract))
Assay: co-IP

Substance: CENP-C (natural protein)
- percent co-depleted: 80%
